Data from the supplement of paper PMC12764529.
± gives the half width of the 95% confidence interval.

experiment: folding stability dG unfold from trypsin proteolysis; higher = more stable
In short: (§1)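 Unfolding free energy was derived, per protease or combined, by relating Bayesian-fitted K50 values from sequencing counts to a sequence-predicted unfolded-state K50 and a shared folded-state K50. The underlying digests exposed cysteine-free mini-proteins under 80 residues, in a PA-tagged cDNA display construct, to trypsin and chymotrypsin at 11 threefold-diluted concentrations and to a no-protease condition. A filter kept only designs with AlphaFold2 dimer inter-PAE above 15.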

Sequence	folding stability dG unfold [kcal/mol]
SAMKLTTLSESSDPATGVRYLTVAIPSSQDDLIKEIAEELEKKGVKATILTPNVPAGSSVTIKLEFKGKSAG [r14_354_JUSTAS]	0.109 ± 0.17
SAMDLLRERGYDVEEVTKLRDEVLPNGTIVTLYEVTVRLPDRVITTPIKVSGESEEEAEKLAYETVARESAG [r14_726_JUSTAS]	0.49 ± 0.031
SAGGSAGGSAGGSDDFVLRYRRRVRRKPKEVRLLPNGELVTGWEEEVSTFPVLTHPDDDSAGGSAGGSAGGS [r10_524_TrMRF]	0.239 ± 0.11
SAGGSAETLTITLTVKPGETVTIKALFKAEDGSVYAVTATFTAEDEGTVTITVTRLPPGVKDLADLSAGGSA [r15_909_TrROS_Hall]	2.83 ± 0.099
SAGMPEVKLLPKPDGSLVLVVVFEDKAIIIEFPPDGEGKIYIIDLKNNKITEIPFPSEDPLKAIKEALSSAG [r5_674_TrMRF]	2.35 ± 0.086
SGMIDVDLDYTTEDGRPVKVSASYDPATGVLTFKVPDNDDVIIATVTEVTTEDESVTVTLNVTRYSKELLSA [r9_587_JUSTAS]	0.957 ± 0.072
SAGGSAGGSAGEEVLTLTFPVPPDAPPPGLEAIRESLPGLEDVELDAEELPDGTVRVVLSSAGGSAGGSAGG [r17_205_TrMRF]	-0.558 ± 0.19
SAGGMKKVRLTLVFESEEEALEALRKALEEAGVEVKVVRVERLPDGRVVVTVEIEVSDEVLEALKAASAGGS [r8_357_TrROS_Hall]	3.77 ± 0.068
SAGGSAGGSMKKIKVKIKITDKDGNKKEVEAEIFFDEETGKLYIKLPNGEVKEISLEDIEIVESAGGSAGGS [r12_256_TrROS_Hall]	2.46 ± 0.08
SAGGSAMTVTVELEFEPVTVTDADGKEREVPVRVKVTAKVELVRDPETGELVERVEVTSIEIEVEPSAGGSA [r15_884_TrROS_Hall]	1.73 ± 0.069
SAGDALKDLAPDVEITPSSFPFAFPPSRPVLAASIVAHPDNTITVFLTEVHPDGGARVLVYTLHLSDKSAGG [r19_125_TrMRF]	2.78 ± 0.12
SAGGGSTVTTFDPSTGKTTVSIGTDPATGERTVTIVLKNGTPVTVPGPFPSVEEAEAAAAAAAAAAASAGGS [r16_319_JUSTAS]	0.762 ± 0.043
SAGGSAPIRIIKDPEKGTIMIRVPGPITVNQELKLRDENGKPWEIKNVEVERVGGRLIITMKVEPASAGGSA [r15_838_TrROS]	1.19 ± 0.052
SAGGMRPMVVTVRYPDGSVQTLVADYDPDTDVIRFPFPSDGTERDIPAGEWREDPDYQVLSETPLSLESAGG [r13_994_JUSTAS]	1.58 ± 0.045
SAGGSAGGSAGGSMKEVTITLTDPETGKVSTLVLKLSPEEIEKAAEELAKSSGKKVTIRSAGGSAGGSAGGS [r4_301_JUSTAS]	1.04 ± 0.068
GSVTIELVVPKGVDIPLALLAGIASTGKGKVTARISNPLSGKEIEVTFPGGGLGEAGVTEGINVVRLTVYGS [r1_238_TrMRF]	0.869 ± 0.1
SAGGSAGGSAGKPIIKVKIIEKKDGYLKIEIEDEKTGETKTITLKPGQKLEIKLELVKEPSAGGSAGGSAGG [r11_738_TrROS_Hall]	1.92 ± 0.15
SAPAVLLEEPDTLVEVEKLPDGSLLIRRVTKFPDGSVTVEISVIYPGGSLSVLESVTLNVPPEEPLPLLSAG [r14_42_JUSTAS]	2.42 ± 0.054
SAGGSMIPLTVTRYDPNSDKPVSTTPVVYDPETGTWTAYPPDGSRTTYALSLEDLIAALPSTWSVGPSAGGS [r16_543_JUSTAS]	0.452 ± 0.034
SAGGSAGGSAKEYIVRIKVRLKDGEEVEIEITVSEEELEELKKALESLPNIEEAEIEVFPLPSAGGSAGGSA [r18_157_TrROS_Hall]	3.82 ± 0.11
SAGGSAGGSMYRVRIKVRNRETGEWLEIELEVPEGVTEEELKAALRELFPDAEIVDIEIEKLPSAGGSAGGS [r12_738_TrROS_Hall]	3.68 ± 0.14

Sequence	folding stability dG unfold [kcal/mol]
SAGGSAMKKIPKENVEKVIEFTDKNGKKITIVYNKKTGKAYIFDKKTKKVIEIDMTEDEIKKLLKSSAGGSA [r15_810_TrROS_Hall]	1.1 ± 0.023
SFRIMASYDPDYGTITVYVQFQDPDNGEPIPAEEIAKEIAEQFPGAKIDDIEPNPDGWFKIEIKVPPGAFSA [r9_87_TrROS]	2.19 ± 0.077
SAGGSMTISYDPSTGTVTITDPTVPLNTPRSITITFPGGETFTATLTPLPDNSATATYTVVPTAGASAGGSA [r2_89_JUSTAS]	1.26 ± 0.036
SKKVKIVIKIKVEVTNKDGKKKTFEFTLVIELSEEEIEKLKKKIEDLLNELKKKYPNIKKVEITEIKILPSA [r9_436_TrROS_Hall]	3.59 ± 0.26
SLEEKIKEAIENSPPNSEVIVPLPDDRTVKITVTPETVTGDGRRRLRIKVTITIYDPSGTKLGEKVLEIPLS [r1_386_JUSTAS]	2.66 ± 0.052
STSTTITYPTLTISVEESVLPDGTPRYTVTLHLPEKGVSIPVEVDSAAEAEEAVREAIRKLLPDETVEEESA [r9_749_JUSTAS]	2.24 ± 0.12
SAGGMSEEVRKLAEELAKKLNIEKVEVLPDGTVRITLKNGKKIEIKVEKVEVKEVKVEVEVEEVEEESAGGS [r16_296_TrROS_Hall]	2.55 ± 0.27
SAGSMEALRALAEELAAEIAAAARAAGREVEVDITEVRPGEVRIRVTTTPPGGERTVEDIEIALPEERLSAG [r5_994_JUSTAS]	0.934 ± 0.018
SAKKIILIKAESEEELKKAIEEAKKLAEEGKKVEIIIETPKGLILIEIDVKTKKIKIKNLETGEEIELESAG [r14_423_TrROS_Hall]	1.49 ± 0.1
SAGEKKEKEKEKKKEEEEKKKKEEEKKKEEEKKKEKTLKLEFTLPDGSKIEIEMTVEELKKLGLSPEELSAG [r5_12_TrROS_Hall]	0.836 ± 0.14
SAMMVVYYDPETGELVLVDPSEIPPELVEKGIEPVRLVPLRILVEVESEEEAEELARLFPDLVEVSLNPSAG [r14_638_TrMRF]	1.97 ± 0.045
SAGGSAGGSAGGMTITIKVPPNMTEEQLRELARELARKLGLEDVEVRIERREDGTVRITFSAGGSAGGSAGG [r7_810_TrROS_Hall]	4.91 ± 0.2
SAGGSAMTYTITLKTPGSQSLELSLDEKLKLLSQTIDPNTGVTTLTLEGDPEEAKKLEQEIKEKLASAGGSA [r15_662_JUSTAS]	1.56 ± 0.059
SAMTPEFFETIKEASREGDIAAVLEAAEAIKTEFPDTGLTVDVVIEPREDDRFVIEVRVDYPPNLEGLASAG [r14_690_TrMRF]	-0.142 ± 0.039
SMKKIVLIYPESVSPEEAEKIAEEILKKLGLKKGSPVTILPLSEYESNPEMRARIEEAKKKGADIIIEVKSA [r9_1147_JUSTAS]	2.91 ± 0.15
SAGGSYLVEVVIEYPKQGVKKTVKLFVNNDPKKAEELAEDIIKELGYPDAKIEIKIIPVDPNDPRVLGSAGG [r13_682_JUSTAS]	1.98 ± 0.034
SAGGSAGGSAGGVEIVIMFPRGMPPEQFAKMIAKWLRRQGLPPNVKVDIKIIPIDPDDMSAGGSAGGSAGGS [r10_746_TrROS]	2.82 ± 0.051
SAGGGTRTINFDSPEDAEDAIEDWPDWDKVTISVPSNGEPQSIPLKIKPPPPPKYKRDENGKPEPEPDSAGG [r13_183_TrROS]	2.08 ± 0.14
SEKPLVTLELELVVETEEQARAAVEALLAALPEEEIVDIRVEVEEVDVFENGELVGRRRRVRVTIVVRRPSA [r9_605_TrROS_Hall]	4.31 ± 0.24
SAKLIRDLLRDHGFPIKNIDVQKNPNGKTYISIEIKMYTPEYKNDEGRPKPRPVEMTATFPADDLLDALSAG [r14_16_TrROS]	0.91 ± 0.16

experiment: folding stability dG unfold from chymotrypsin proteolysis; higher = more stable
In short: as §1

Sequence	folding stability dG unfold [kcal/mol]
SAMKLTTLSESSDPATGVRYLTVAIPSSQDDLIKEIAEELEKKGVKATILTPNVPAGSSVTIKLEFKGKSAG [r14_354_JUSTAS]	0.66 ± 0.16
SAMDLLRERGYDVEEVTKLRDEVLPNGTIVTLYEVTVRLPDRVITTPIKVSGESEEEAEKLAYETVARESAG [r14_726_JUSTAS]	0.582 ± 0.071
SAGGSAGGSAGGSDDFVLRYRRRVRRKPKEVRLLPNGELVTGWEEEVSTFPVLTHPDDDSAGGSAGGSAGGS [r10_524_TrMRF]	0.5 ± 0.065
SAGGSAETLTITLTVKPGETVTIKALFKAEDGSVYAVTATFTAEDEGTVTITVTRLPPGVKDLADLSAGGSA [r15_909_TrROS_Hall]	4.71 ± 0.1
SAGMPEVKLLPKPDGSLVLVVVFEDKAIIIEFPPDGEGKIYIIDLKNNKITEIPFPSEDPLKAIKEALSSAG [r5_674_TrMRF]	3.99 ± 0.21
SGMIDVDLDYTTEDGRPVKVSASYDPATGVLTFKVPDNDDVIIATVTEVTTEDESVTVTLNVTRYSKELLSA [r9_587_JUSTAS]	2.54 ± 0.066
SAGGSAGGSAGEEVLTLTFPVPPDAPPPGLEAIRESLPGLEDVELDAEELPDGTVRVVLSSAGGSAGGSAGG [r17_205_TrMRF]	-0.172 ± 0.4
SAGGMKKVRLTLVFESEEEALEALRKALEEAGVEVKVVRVERLPDGRVVVTVEIEVSDEVLEALKAASAGGS [r8_357_TrROS_Hall]	4.01 ± 0.053
SAGGSAGGSMKKIKVKIKITDKDGNKKEVEAEIFFDEETGKLYIKLPNGEVKEISLEDIEIVESAGGSAGGS [r12_256_TrROS_Hall]	4.01 ± 0.069
SAGGSAMTVTVELEFEPVTVTDADGKEREVPVRVKVTAKVELVRDPETGELVERVEVTSIEIEVEPSAGGSA [r15_884_TrROS_Hall]	1.92 ± 0.079
SAGDALKDLAPDVEITPSSFPFAFPPSRPVLAASIVAHPDNTITVFLTEVHPDGGARVLVYTLHLSDKSAGG [r19_125_TrMRF]	3.2 ± 0.051
SAGGGSTVTTFDPSTGKTTVSIGTDPATGERTVTIVLKNGTPVTVPGPFPSVEEAEAAAAAAAAAAASAGGS [r16_319_JUSTAS]	0.824 ± 0.041
SAGGSAPIRIIKDPEKGTIMIRVPGPITVNQELKLRDENGKPWEIKNVEVERVGGRLIITMKVEPASAGGSA [r15_838_TrROS]	1.24 ± 0.19
SAGGMRPMVVTVRYPDGSVQTLVADYDPDTDVIRFPFPSDGTERDIPAGEWREDPDYQVLSETPLSLESAGG [r13_994_JUSTAS]	0.0211 ± 0.11
SAGGSAGGSAGGSMKEVTITLTDPETGKVSTLVLKLSPEEIEKAAEELAKSSGKKVTIRSAGGSAGGSAGGS [r4_301_JUSTAS]	1.99 ± 0.066
GSVTIELVVPKGVDIPLALLAGIASTGKGKVTARISNPLSGKEIEVTFPGGGLGEAGVTEGINVVRLTVYGS [r1_238_TrMRF]	1.29 ± 0.11
SAGGSAGGSAGKPIIKVKIIEKKDGYLKIEIEDEKTGETKTITLKPGQKLEIKLELVKEPSAGGSAGGSAGG [r11_738_TrROS_Hall]	1.33 ± 0.064
SAPAVLLEEPDTLVEVEKLPDGSLLIRRVTKFPDGSVTVEISVIYPGGSLSVLESVTLNVPPEEPLPLLSAG [r14_42_JUSTAS]	1.46 ± 0.051
SAGGSMIPLTVTRYDPNSDKPVSTTPVVYDPETGTWTAYPPDGSRTTYALSLEDLIAALPSTWSVGPSAGGS [r16_543_JUSTAS]	0.599 ± 0.052
SAGGSAGGSAKEYIVRIKVRLKDGEEVEIEITVSEEELEELKKALESLPNIEEAEIEVFPLPSAGGSAGGSA [r18_157_TrROS_Hall]	3.53 ± 0.043
